What was measured:
[1] = molecular target: CD19 (UniProt P15391); assay: cell-based or functional assay
[2] = molecular target: human serum immunoglobulin (IgG) (human); assay: flow cytometry of cFcR-transduced human T cells incubated with human serum IgG, co-stained for CD16 and IgG

UniProt P15391, sequence (P15391 20-556 limits assumed): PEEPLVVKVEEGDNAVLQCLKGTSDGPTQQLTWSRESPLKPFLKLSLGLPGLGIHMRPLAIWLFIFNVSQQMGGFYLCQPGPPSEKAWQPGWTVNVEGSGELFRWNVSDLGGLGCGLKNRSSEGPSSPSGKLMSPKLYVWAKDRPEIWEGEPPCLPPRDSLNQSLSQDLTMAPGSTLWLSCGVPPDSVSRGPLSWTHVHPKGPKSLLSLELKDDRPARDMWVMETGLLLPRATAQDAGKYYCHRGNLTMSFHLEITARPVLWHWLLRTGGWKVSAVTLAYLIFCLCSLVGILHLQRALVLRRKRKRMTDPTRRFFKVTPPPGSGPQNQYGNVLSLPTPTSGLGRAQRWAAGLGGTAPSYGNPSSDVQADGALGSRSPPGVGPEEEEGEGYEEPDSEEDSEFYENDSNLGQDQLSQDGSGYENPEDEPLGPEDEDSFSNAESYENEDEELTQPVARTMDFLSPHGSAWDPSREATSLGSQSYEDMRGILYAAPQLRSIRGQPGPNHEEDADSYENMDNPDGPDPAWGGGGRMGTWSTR

| Substance | degranulation assay, CD107a upregulation on TCR+ CAR19+ T cells after 4 hr with CD19+ Daudi [1] [%] | degranulation assay, CD107a upregulation on TCR- CAR19+ T cells after 4 hr with CD19+ Daudi [1] [%] | percent of cells with CD16 and IgG co-staining [2] [%] |
| --- | --- | --- | --- |
| CD3z-41BB-CD8-CAR19scFv (4G7) chimeric antigen receptor (CAR19) (from UniProt P01732 138-206; Q07011 214-255; P20963 52-164) | 53 | 57 | – |
| chimeric FcR (cFcR) (from UniProt P08637 17-208; P01732 138-206; Q07011 214-255; P20963 52-164) (receptor) | – | – | 7.5 |

From US20200087681A1
